Assay results published in US20250304664A1 (VIB VZW, published 2025).

T1: NTCP consensus-mutant construct used for cryo-electron microscopy structure determination (NTCPEM) (human (consensus design), UniProt Q14973 2-328)
T1 chain: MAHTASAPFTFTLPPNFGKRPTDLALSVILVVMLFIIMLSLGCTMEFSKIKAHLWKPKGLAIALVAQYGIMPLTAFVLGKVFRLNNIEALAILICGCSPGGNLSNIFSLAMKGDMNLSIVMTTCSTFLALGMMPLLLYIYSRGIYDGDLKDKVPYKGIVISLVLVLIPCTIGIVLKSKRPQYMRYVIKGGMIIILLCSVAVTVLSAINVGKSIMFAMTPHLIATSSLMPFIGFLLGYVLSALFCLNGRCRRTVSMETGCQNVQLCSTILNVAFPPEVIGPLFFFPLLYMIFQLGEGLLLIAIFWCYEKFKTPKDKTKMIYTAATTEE

T2: human wild type Sodium taurocholate co-transporting polypeptide (NTCPWT) (human, UniProt Q14973 1-349)
T2 construct: Transiently expressed in HEK293 cells; also called SLC10A1; human wildtype NTCP
T2 sequence: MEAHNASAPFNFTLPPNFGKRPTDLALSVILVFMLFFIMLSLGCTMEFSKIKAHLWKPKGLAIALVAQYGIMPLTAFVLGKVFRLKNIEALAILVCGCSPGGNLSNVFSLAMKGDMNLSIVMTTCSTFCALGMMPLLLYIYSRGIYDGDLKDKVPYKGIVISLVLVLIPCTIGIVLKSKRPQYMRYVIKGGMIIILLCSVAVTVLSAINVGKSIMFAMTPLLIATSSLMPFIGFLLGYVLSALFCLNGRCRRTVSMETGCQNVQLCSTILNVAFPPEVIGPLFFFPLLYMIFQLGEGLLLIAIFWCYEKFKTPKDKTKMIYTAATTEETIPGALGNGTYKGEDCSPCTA

T3: N-glycosylation knocked-out NTCP (NTCPWT_KOG) (human, UniProt Q14973 1-349)
T3 chain: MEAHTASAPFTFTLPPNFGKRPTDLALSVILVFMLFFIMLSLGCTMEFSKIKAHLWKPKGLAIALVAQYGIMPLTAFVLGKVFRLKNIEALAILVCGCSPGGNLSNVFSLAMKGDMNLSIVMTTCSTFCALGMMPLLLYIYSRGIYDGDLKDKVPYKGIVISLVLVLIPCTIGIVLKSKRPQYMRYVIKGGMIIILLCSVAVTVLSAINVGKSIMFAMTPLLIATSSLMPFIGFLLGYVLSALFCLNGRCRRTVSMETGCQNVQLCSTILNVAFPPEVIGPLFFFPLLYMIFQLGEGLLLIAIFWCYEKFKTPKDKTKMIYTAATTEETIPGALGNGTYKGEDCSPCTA


Target: T1, NTCP consensus-mutant construct used …
Experiment: cell-based or functional assay

Row | Binder | half-maximal inhibitory concentrations (IC50) of Na+-induced fluorescent-substrate uptake by cells expressing NTCPEM [µM]
1 | NbNTCP_87 (VHH, Family 21; expressed in E. coli periplasm; also called Nb87) VHH: QVQLVESGGGLVQAGGSLRLSCAVSGRTTANYNMGWFRQAPGKEREFVAGIKWSSGSTYVADSAKGRFTISRDNAKNSVYLQMDSLKPEDTALYYCAANYYGVSWFLISPSSYDYWGQGTQVTVSS | ~0.18

target: T2, human wild type Sodium taurocholate …; experiment: cell surface labelling, 20 µM Nb87 and 10 µM (AntiC)2-mCherryXL, fluorescence microscopy
Experimental: (§1) Adherent HEK293T cells were seeded at 0.3×10⁶/mL using 500 μl per well in a 24-well plate and incubated for 2 days. 5 μg of cDNA coding for NTCP, or control neurotransmitter (EAAT1) was transfected as follows: (1) 5 μg DNA was mixed with 50 μl Opti-MEM and incubated for 5 min; (2)² μl lipofeactamine was mixed with 50 μl of Opti-MEM and incubated for 5 min: (3) DNA and lipofectamine solutions were mixed in 1:1 ratio and incubated for 20 min. 100 μl of the mixture was added to each well. After incubation for 6-8 h the medium was changed to DMEM medium, and incubated for 2 days post transfection. […] Excess of primary unlabeled Nb was removed and 10 μM of the secondary labelled Nb ((AntiC)2-mCherryXL) was added following a 1 h incubation. Cells were washed once with fresh medium prior to detection of fluorescence on an inverted microscope.

Row | Binder | binding result
2 | NbNTCP_87 (VHH, Family 21; expressed in E. coli periplasm; also called Nb87) VHH: QVQLVESGGGLVQAGGSLRLSCAVSGRTTANYNMGWFRQAPGKEREFVAGIKWSSGSTYVADSAKGRFTISRDNAKNSVYLQMDSLKPEDTALYYCAANYYGVSWFLISPSSYDYWGQGTQVTVSS | binds

Target: T3, N-glycosylation knocked-out NTCP …
Experiment: competition with Nb87, substrate uptake read-out in HEK293 cells expressing NTCPWT-KOG, Nbs at 2 µM

Row | Binder | binding result
3 | NbNTCP_87 - S55Q variant (VHH, Single mutant of Nb87; also called Nb87 S55Q) VHH: QVQLVESGGGLVQAGGSLRLSCAVSGRTTANYNMGWFRQAPGKEREFVAGIKWSQGSTYVADSAKGRFTISRDNAKNSVYLQMDSLKPEDTALYYCAANYYGVSWFLISPSSYDYWGQGTQVTVSS | binds
4 | NbNTCP_87 -A30Q variant (VHH, Single mutant of Nb87; also called Nb87 A30Q) VHH: QVQLVESGGGLVQAGGSLRLSCAVSGRTTQNYNMGWFRQAPGKEREFVAGIKWSSGSTYVADSAKGRFTISRDNAKNSVYLQMDSLKPEDTALYYCAANYYGVSWFLISPSSYDYWGQGTQVTVSS | binds
5 | NbNTCP_87 - S55E variant (VHH, Single mutant of Nb87; also called Nb87 S55E) VHH: QVQLVESGGGLVQAGGSLRLSCAVSGRTTANYNMGWFRQAPGKEREFVAGIKWSEGSTYVADSAKGRFTISRDNAKNSVYLQMDSLKPEDTALYYCAANYYGVSWFLISPSSYDYWGQGTQVTVSS | binds
6 | NbNTCP_87 - S111R variant (VHH, Single mutant of Nb87; also called Nb87 S111R) VHH: QVQLVESGGGLVQAGGSLRLSCAVSGRTTANYNMGWFRQAPGKEREFVAGIKWSSGSTYVADSAKGRFTISRDNAKNSVYLQMDSLKPEDTALYYCAANYYGVSWFLISPRSYDYWGQGTQVTVSS | binds

Target: T3, N-glycosylation knocked-out NTCP …
Experiment: competition with Nb91, substrate uptake read-out in HEK293 cells expressing NTCPWT-KOG, Nbs at 10 µM

Row | Binder | binding result
7 | NbNTCP_91- N27D variant (VHH, Single mutant of Nb91; also called Nb91 N27D) VHH: QVQLVESGGGLVEAGGSLRLSCAASTDLRSYAMAWFRQAPGKEREFVSFINWNYGNTRYADSVKGRFTISRDNAKITVYLQMNSLKPEDTAVYYCAAATIGRLAGIDSTTLYDYWGQGTQVTVSS | binds
8 | NbNTCP_91- R29G variant (VHH, Single mutant of Nb91; also called Nb91 R29G; NbNTOP_91- R29G variant) VHH: QVQLVESGGGLVEAGGSLRLSCAASTNLGSYAMAWFRQAPGKEREFVSFINWNYGNTRYADSVKGRFTISRDNAKITVYLQMNSLKPEDTAVYYCAAATIGRLAGIDSTTLYDYWGQGTQVTVSS | binds
9 | NbNTCP_91-N53D variant (VHH, Single mutant of Nb91; also called Nb91 N53D) VHH: QVQLVESGGGLVEAGGSLRLSCAASTNLRSYAMAWFRQAPGKEREFVSFINWDYGNTRYADSVKGRFTISRDNAKITVYLQMNSLKPEDTAVYYCAAATIGRLAGIDSTTLYDYWGQGTQVTVSS | binds
10 | NbNTCP_91- N27E variant (VHH, Single mutant of Nb91; also called Nb91 N27E) VHH: QVQLVESGGGLVEAGGSLRLSCAASTELRSYAMAWFRQAPGKEREFVSFINWNYGNTRYADSVKGRFTISRDNAKITVYLQMNSLKPEDTAVYYCAAATIGRLAGIDSTTLYDYWGQGTQVTVSS | binds
11 | NbNTCP_91- L103N variant (VHH, Single mutant of Nb91; also called Nb91 L103N) VHH: QVQLVESGGGLVEAGGSLRLSCAASTNLRSYAMAWFRQAPGKEREFVSFINWNYGNTRYADSVKGRFTISRDNAKITVYLQMNSLKPEDTAVYYCAAATIGRNAGIDSTTLYDYWGQGTQVTVSS | binds
12 | NbNTCP_91- R29S variant (VHH, Single mutant of Nb91; also called Nb91 R29S) VHH: QVQLVESGGGLVEAGGSLRLSCAASTNLSSYAMAWFRQAPGKEREFVSFINWNYGNTRYADSVKGRFTISRDNAKITVYLQMNSLKPEDTAVYYCAAATIGRLAGIDSTTLYDYWGQGTQVTVSS | binds
13 | NbNTCP_91- R29N variant (VHH, Single mutant of Nb91; also called Nb91 R29N) VHH: QVQLVESGGGLVEAGGSLRLSCAASTNLNSYAMAWFRQAPGKEREFVSFINWNYGNTRYADSVKGRFTISRDNAKITVYLQMNSLKPEDTAVYYCAAATIGRLAGIDSTTLYDYWGQGTQVTVSS | binds
14 | NbNTCP_91- N27Q variant (VHH, Single mutant of Nb91; also called Nb91 N27Q) VHH: QVQLVESGGGLVEAGGSLRLSCAASTQLRSYAMAWFRQAPGKEREFVSFINWNYGNTRYADSVKGRFTISRDNAKITVYLQMNSLKPEDTAVYYCAAATIGRLAGIDSTTLYDYWGQGTQVTVSS | binds

target: T4, excitatory amino acid transporter, EAAT1 (UniProt P43003 1-542, limits assumed); experiment: cell surface labelling of transfected HEK293T cells, Nb87 as primary Nb and (AntiC)2-mCherryXL as secondary Nb, fluorescence microscopy
T4 construct: whole, on cells; Negative control expressed on HEK293T cells; also called unrelated neurotransmitter transporter
T4 sequence (P43003 whole entry): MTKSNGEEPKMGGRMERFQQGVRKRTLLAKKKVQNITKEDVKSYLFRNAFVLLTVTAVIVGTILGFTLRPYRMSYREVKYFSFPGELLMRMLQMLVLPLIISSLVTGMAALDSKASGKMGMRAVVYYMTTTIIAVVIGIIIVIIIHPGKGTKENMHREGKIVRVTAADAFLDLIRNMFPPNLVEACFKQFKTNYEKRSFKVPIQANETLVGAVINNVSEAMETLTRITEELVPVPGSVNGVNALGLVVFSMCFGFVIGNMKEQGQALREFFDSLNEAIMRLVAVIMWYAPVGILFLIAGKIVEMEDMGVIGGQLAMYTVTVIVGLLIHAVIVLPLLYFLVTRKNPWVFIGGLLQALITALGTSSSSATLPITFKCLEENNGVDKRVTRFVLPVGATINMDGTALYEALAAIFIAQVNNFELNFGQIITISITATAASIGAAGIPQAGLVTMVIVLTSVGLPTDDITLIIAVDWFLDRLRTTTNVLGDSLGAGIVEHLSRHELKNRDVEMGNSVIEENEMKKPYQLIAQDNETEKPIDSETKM
Experimental: as §1

Row | Binder | binding result
15 | NbNTCP_87 (VHH, Family 21; expressed in E. coli periplasm; also called Nb87) VHH: QVQLVESGGGLVQAGGSLRLSCAVSGRTTANYNMGWFRQAPGKEREFVAGIKWSSGSTYVADSAKGRFTISRDNAKNSVYLQMDSLKPEDTALYYCAANYYGVSWFLISPSSYDYWGQGTQVTVSS | no binding (tested: 20 µM Nb87)
